Measured values published in patent US11147875B2, “Compositions, combinations and related methods for photoimmunotherapy” (priority 2015, dated 2021).

Key:
[1] = test system: BxPC3 cells; experiment: Effect of interferon gamma on cell death; type: cell-based; details: 0 ng/mL to 3.75 μg/mL, 18 hours
Procedure: BxPC3 cells (#CRL-1687, ATCC, Manassas Va.) were seeded in 96 well black, clear-flat bottom dishes at 5000 cells per well, and placed in at 37° C., 5% CO2 incubator. The following day, the cells were washed once with RPMI 1640 supplemented with 10% FBS and 1% Penicillin/Streptomyocin (complete culture media). The cells were then incubated for 18 hours with complete culture media containing different concentrations of recombinant human Interferon Gamma (IFNgamma) (carrier free) (Cat No: 570202, BioLegend, San Diego, Calif.) ranging from 0 ng/mL to 3.75 μg/mL.
After 18 hours, the media containing different concentrations of interferon gamma was replaced with complete culture media containing 1× CellTox Green (Cat No: G8731, Promega, Madison, Wis.). […] The CellTox Green fluorescence signal was measured at 24.5 hours after light treatment using a fluorescence plate reader. The cells were then lysed with detergent, incubated at 37° C. for 30 minutes, and the CellTox Green fluorescence signal was measured again post lysis. The percent dead cells was calculated by taking the ratio between background (1× CellTox Green in complete culture media without cells) subtracted CellTox Green signal per well prior to and post lysis and multiplying the ratio by 100.

[2] = test system: PD-L1; experiment: Effect of interferon gamma on PD-L1 expression, flow cytometry; type: cell-based; details: 375 pg/mL, 37.5 ng/mL, 18 hours; BxPC3 cells
Procedure: BxPC3 cells were seeded in 12 well dishes at 145,000 cells per well, and placed at 37° C. in a 5% CO2 incubator. The following day, the cells were washed once with RPMI 1640 supplemented with 10% FBS and 1% Penicillin/Streptomyocin (complete culture media). The cells were then incubated for 18 hours with complete culture media alone, complete culture media containing 375 pg/mL of recombinant human Interferon Gamma (carrier free) (Cat No: 570202, BioLegend, San Diego, Calif.), or complete culture media containing 37.5 ng/mL recombinant human Interferon Gamma (carrier free). After the 18 hour incubation with or without recombinant interferon gamma, the BxPC3 cells were washed one time with complete culture media. […]
After the one hour incubation, the cells were washed three times with phosphate buffer saline (pH 7) and incubated with enzyme free cell dissociation buffer (Catalog No: S-014-C, EMD Millipore, Billerica, Mass.) until cells were detached. After the cells detached, phosphate buffer saline containing 0.5% bovine serum albumin fraction V (Catalog No: 15260-037, ThermoFisher Scientific, Waltham, Mass.) was added to the cells, and the samples were immediately analyzed by flow cytometry for PD-L1 expression based on the fluorescent signal from the IR700 dye of the anti-PD-L1-IRDye 700DX. […]

B1: IFNgamma: recombinant human Interferon Gamma (carrier free) (protein, UniProt P01579 24-161, looked up)
Interferon gamma: QDPYVKEAENLKKYFNAGHSDVADNGTLFLGILKNWKEESDRKIMQSQIVSFYFKLFKNFKDDQSIQKSVETIKEDMNVKFFNSNKKKRDDFEKLTNYSVTDLNVQRKAIHELIQVMAELSPAAKTGKRKRSQMLFRG
- cell death [1]: dose-dependent increase in cell death
- PD-L1 expression [2]: dose-dependent increase in PD-L1 expression
